# Assay results taken from publication PMC3478719.
# Biological target: SIF binding receptor from human spermatozoa (human (endogenous in spermatozoa))
# Assay: ITC; microreaction calorimeter, titration mode; 1.5 mL receptor (200 μg mL^-1) in the vial, ligand (500 μg mL^-1) in a 250 μL syringe; PBS
substance,measurement,value
Sperm immobilization factor (SIF) from Staphylococcus aureus (natural protein),Ka,1350 M⁻¹
same,dH,-2.84 kcal/mol
same,"heat released (ligand 7.5 × 10^-4 μM, receptor 4.8 × 10^-3 μM)",9.7 mJ
same,"heat released (ligand 15.0 × 10^-4 μM, receptor 4.8 × 10^-3 μM)",9 mJ
same,"heat released (ligand 22.5 × 10^-4 μM, receptor 4.8 × 10^-3 μM)",8.6 mJ
same,"heat released (ligand 30.0 × 10^-4 μM, receptor 4.8 × 10^-3 μM)",5.6 mJ
same,"heat released (ligand 37.5 × 10^-4 μM, receptor 4.8 × 10^-3 μM)",2.3 mJ
same,"heat released (ligand 45.0 × 10^-4 μM, receptor 4.8 × 10^-3 μM)",2.1 mJ
same,"heat released (ligand 52.5 × 10^-4 μM, receptor 4.8 × 10^-3 μM)",2 mJ
